Measurements from patent US20180009859A1, “PHARMACOLOGICAL MODULATORS OF GABAA RECEPTORS AND THEIR USE” (priority 2015, published 2018).
Where a chain is given by its changes, count along the chain named. Where two headings read alike, the source gives them in different places.

Experiments:
[1] = system: GABAA receptors in SPMs; type: binding, rat; details: for displacing ^125I-rMmTX2 (in words): SPMs; for Ki: read-out: equilibrium inhibition constant (Ki)
[2] = target: GABAA receptors in SPMs; experiment: [^3H]muscimol competition for binding to SPMs; parameters: species or system rat
[3] = target: GABAA receptors of hippocampal neurons; details: reported values; cited from earlier work
[4] = system: GABAA receptors of hippocampal neurons; type: cell-based, mouse
[5] = system: hippocampal neurons; experiment: Calcium imaging of hippocampal neurons (Ca^2+ oscillations); type: cell-based, rat; details: 0.3 μM muscimol alone, n=9
[6] = target: GABAA receptors in rat brain synaptic plasma membranes (SPMs) (rat)
[7] = target: GABAA receptors in rat brain synaptic plasma membranes (SPMs) (rat); remark: listed apart in the source
[8] = target: GABAA receptors in rat brain synaptic plasma membranes (SPMs) (rat); experiment: ratio of the kinetic constants, radioligand binding to rat brain SPMs
[9] = target: GABAA receptors in rat brain synaptic plasma membranes (SPMs) (rat); remark: listed apart in the source
[10] = system: hippocampal neurons; type: cell-based, mouse; details: 100 μM PTX, n=5
[11] = target: GABAA receptors of mouse hippocampal neurons (mouse); experiment: cell-based or functional assay
[12] = target: GABAA receptors in rat brain synaptic plasma membranes (SPMs) (rat); experiment: competition with 40 nM [3H]muscimol for rat brain SPMs
[13] = target: GABAA receptors in rat brain synaptic plasma membranes (SPMs) (rat); experiment: competition with 40 nM [3H]muscimol for rat brain SPMs, nonlinear fit for an allosteric modulator
[14] = target: GABAA receptors in rat brain synaptic plasma membranes (SPMs) (rat); experiment: competition with 125I-rMmTX2 for rat brain SPMs
[15] = target: α1β2γ2 GABAA receptor (Rattus norvegicus, UniProt P62813+P63138); type: cell-based
[16] = system: mice; details: for activity when injected intravenously: mouse, in vivo
[17] = system: mice; details: injection into mouse brain
[18] = system: GABAA receptors in SPMs; type: binding, rat
[19] = read-out: EC50 for reducing ^125I-MmTX2 binding to SPMs
[20] = sigmoidal dose-response fit, read-out: EC50 for reducing ^125I-MmTX2 binding to SPMs

Chain of α1β2γ2 GABAA receptor (P63138 25-474): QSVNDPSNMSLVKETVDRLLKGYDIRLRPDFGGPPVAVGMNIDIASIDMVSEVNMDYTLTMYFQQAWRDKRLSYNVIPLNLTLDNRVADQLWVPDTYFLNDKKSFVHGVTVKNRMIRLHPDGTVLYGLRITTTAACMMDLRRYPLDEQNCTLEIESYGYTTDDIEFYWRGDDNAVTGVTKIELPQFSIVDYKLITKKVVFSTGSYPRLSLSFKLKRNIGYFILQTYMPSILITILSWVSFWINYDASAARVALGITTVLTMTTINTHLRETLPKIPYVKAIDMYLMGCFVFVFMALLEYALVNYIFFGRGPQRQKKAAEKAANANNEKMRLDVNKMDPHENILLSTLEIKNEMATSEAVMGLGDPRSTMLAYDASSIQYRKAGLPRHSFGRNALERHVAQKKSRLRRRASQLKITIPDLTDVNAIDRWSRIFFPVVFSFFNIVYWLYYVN
Chain of α1β2γ2 GABAA receptor (P62813 28-455): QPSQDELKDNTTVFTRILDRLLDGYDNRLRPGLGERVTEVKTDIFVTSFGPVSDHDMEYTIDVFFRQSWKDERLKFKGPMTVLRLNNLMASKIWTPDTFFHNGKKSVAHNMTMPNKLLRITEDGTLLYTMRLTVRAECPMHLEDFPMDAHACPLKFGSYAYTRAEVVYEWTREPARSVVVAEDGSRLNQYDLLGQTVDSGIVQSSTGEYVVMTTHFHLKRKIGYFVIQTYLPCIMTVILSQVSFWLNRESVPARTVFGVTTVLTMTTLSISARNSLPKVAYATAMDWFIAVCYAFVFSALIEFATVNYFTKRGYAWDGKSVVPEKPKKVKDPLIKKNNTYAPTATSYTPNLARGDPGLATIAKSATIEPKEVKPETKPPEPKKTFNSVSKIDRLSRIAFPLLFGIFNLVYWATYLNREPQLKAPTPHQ
Chain of α1β2γ2 GABAA receptor (P18508 39-466, further chain): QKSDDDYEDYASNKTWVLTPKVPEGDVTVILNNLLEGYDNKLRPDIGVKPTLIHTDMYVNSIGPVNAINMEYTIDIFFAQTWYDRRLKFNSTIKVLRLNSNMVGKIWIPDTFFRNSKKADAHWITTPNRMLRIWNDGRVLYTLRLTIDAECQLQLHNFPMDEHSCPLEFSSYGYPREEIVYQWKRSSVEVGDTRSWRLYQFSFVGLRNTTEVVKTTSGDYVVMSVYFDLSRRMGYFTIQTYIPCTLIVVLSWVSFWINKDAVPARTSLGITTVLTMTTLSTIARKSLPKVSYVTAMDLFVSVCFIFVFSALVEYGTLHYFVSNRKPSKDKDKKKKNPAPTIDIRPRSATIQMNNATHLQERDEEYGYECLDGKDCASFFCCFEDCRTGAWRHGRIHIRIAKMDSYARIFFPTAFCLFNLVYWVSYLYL

NCCCC(=O)O [GABA, γ-aminobutyric acid]
nH (Hill slope) for reducing ^125I-MmTX2 binding [1]: 0.99±0.18

NCc1cc(=O)[nH]o1 [[^3H]muscimol, reference compound]
Kd ([2]; SPMs, read-out: Kd of [^3H]muscimol (constrained fit parameter)): 1.75 nM

CN1[C@@H]2CC[C@H]1C[C@@H](OC(=O)C(CO)c1ccccc1)C2 (stereo partly shown) [atropine]
competition with ^125I-rMmTX2 for binding to SPMs [1]: does not compete

COc1cc2c3cc1Oc1cc(ccc1O)C[C@@H]1c4c(cc(OC)c(O)c4Oc4ccc(cc4)C[C@@H]3N(C)CC2)CC[N+]1(C)C [d-tubocurarine]
competition with ^125I-rMmTX2 for binding to SPMs ([1]; ligand 10 μM): no competition is observed

CN1C(=O)CN=C(c2ccccc2)c2cc(Cl)ccc21 [diazepam]
nH (Hill slope) for reducing ^125I-MmTX2 binding [1]: −0.96±0.07
EC50 [1, 19]: 4.9 µM

COc1ccc(-c2ccc(=N)n(CCCC(=O)O)n2)cc1 [gabazine]
nH (Hill slope) for reducing ^125I-MmTX2 binding [1]: 1.00±0.07
EC50 [1, 19]: 0.2 µM

N[C@@H](CCC(=O)O)C(=O)O [glutamate]
competition with ^125I-rMmTX2 for binding to SPMs ([1]; ligand 0.1 mM): does not compete

NCC(=O)O [glycine]
competition with ^125I-rMmTX2 for binding to SPMs [1]: does not compete

O=C(O)C1=CCNCC1 [isoguvacine]
nH (Hill slope) for reducing ^125I-MmTX2 binding [1]: 1.02±0.29
EC50 [1, 20]: 275 µM

NCc1cc(=O)[nH]o1 [muscimol, reference compound]
nH (Hill slope) for reducing ^125I-MmTX2 binding [1]: 1.08±0.24
EC50 [1, 20]: 2.1 µM
EC50 [3]: 5.4 to 24 µM
IC50 ([4]; 100 nM rMmTX1, read-out: IC50 of muscimol for abolishing the potentiating effect of rMmTX1): 1100 nM
nH coefficient of GABAA receptor current amplitude ([4]; muscimol alone): 1.4
EC50 ([4]; muscimol alone, Hill fit, read-out: EC50 of GABAA receptor current amplitude): 4.1 µM
frequency of Ca^2+ spikes compared to cells perfused with extracellular saline solution [5]: 98.0±4.8%

CCCC(C)C1(CC)C(=O)NC(=O)NC1=O (stereo not shown) [pentobarbital]
nH (Hill slope) for reducing ^125I-MmTX2 binding [1]: 0.98±0.07
EC50 [1, 20]: 4.8 µM

^125I-rMmTX2 (peptide)
Bmax (fmol/mg of synaptic protein) [6]: 264
Kd [6]: 0.51 nM
half time duration of dissociation [6]: 8 min
koff [6]: 0.0014 s⁻¹
kon [6]: 3.7e+06 M⁻¹ s⁻¹
t1/2 of dissociation [7]: 478 s
Kd [8]: 0.38 nM
Bmax (fmol/mg of SPM protein) [9]: 532
Kd [9]: 0.76 nM
ratio of Bmax with/without PTX [9]: 2.01

cardiotoxin [CTX]
competition with ^125I-rMmTX2 for binding to SPMs ([1]; ligand 10 μM): does not displace

picrotoxin [PTX]
nH for potentiating ^125I-MmTX2 binding capacity [1]: +1.05±1.16
EC50 ([1]; read-out: EC50 for potentiating ^125I-MmTX2 binding capacity to SPMs): 3.7 µM
action potential frequency [10]: increases more dramatically when compared to sMmTX1

recombinant MmTX1 (rMmTX1) (peptide)
factor of increase of the GABAA current elicited by 5 µM muscimol, with 1 nM rMmTX1 [11]: 1.24 fold
factor of increase of the GABAA current elicited by 5 µM muscimol, with 10 nM rMmTX1 [11]: 1.22 fold
percent of the total [^3H]muscimol binding capacity competed [12]: 40%
Kd [13]: 4.9 nM
Ki [14]: 3 nM
log Ki [14]: -8.52

recombinant MmTX2 (rMmTX2) (peptide)
Ki [14]: 3.7 nM
log Ki [14]: -8.44

wild-type (WT) MmTX2, micrurotoxin2 purified from Micrurus mipartitus venom (peptide)
Ki [14]: 0.8 nM
log Ki [14]: -9.09

α-bungarotoxin
competition with ^125I-rMmTX2 for binding to SPMs [1]: no competition is observed

B1: sMmTX1-HRK: sMmTX1 mutated at 4His, 28Arg, 47Lys and acetylated at the N-terminus, SEQ ID NO: 21 (peptide)
chain: Ac-LTCHTCPFTTCPNSESCPGGQSICYQRRWEEHRGERIERRCVANCPKFGSHDTSLLCCTRDNCN
modifications: ends and bridges not checked
effect on α1β2γ2 GABAA receptor currents ([15]; 100 nM muscimol + 100 nM toxin, −70 mV): currents are potentiated and receptor desensitization tends to accelerate
effect on α1β2γ2 GABAA receptor currents ([15]; 300 nM muscimol): potentiating effect is diminished whereas desensitization effect is unaltered

B2: rMmTX1: recombinant MmTX1 from a periplasmic expression system (protein)
peptide: LTCKTCPFTTCPNSESCPGGQSICYQRKWEEHRGERIERRCVANCPAFGSHDTSLLCCTRDNCN
modifications: ends and bridges not checked
displacing ^125I-rMmTX2 (in words) [1]: equally potent
Ki [1]: 3 nM
activity when injected intravenously [16]: inactive
LD50 [17]: 0.027 mg/kg
behavioral signs [17]: reduced activity combined with severe seizures
effect on GABAA receptors in the absence of an agonist [4]: no effect
increase of GABAA receptor-mediated currents [4]: up to 7 fold
Factor of GABAA current increase ([4]; 0.1 μM muscimol + 100 nM rMmTX1): 7.9 ± 2.9 (n = 2)
Cl^− current ([4]; 0.1 μM muscimol together with 100 nM rMmTX1): 228±30 pA
muscimol concentration at the half-maximal potentiating effect of rMmTX1 ([4]; 100 nM rMmTX1): about 1 μM
Factor of GABAA current increase ([4]; 0.3 μM muscimol + 100 nM rMmTX1): 7.5 ± 1.2 (n = 4)
inward current ([4]; 0.3 μM muscimol together with 100 nM rMmTX1, neurons without response to muscimol alone): 439±51 pA
Factor of GABAA current increase ([4]; 1.0 μM muscimol + 100 nM rMmTX1): 1.9 ± 0.4 (n = 3)
Factor of GABAA current increase ([4]; 3 μM muscimol + 100 nM rMmTX1): 1.4 ± 0.1 (n = 6)
factor of GABAA current amplitude increase ([4]; 5 μM muscimol + 1 nM rMmTX1, n=9): 1.24 ± 0.07
factor of GABAA current amplitude increase ([4]; 5 μM muscimol + 10 nM rMmTX1, n=9): 1.22 ± 0.03
factor of GABAA current amplitude increase ([4]; 5 μM muscimol + 100 nM rMmTX1, n=9): 1.99 ± 0.28
factor of GABAA current amplitude increase ([4]; 5 μM muscimol + 300 nM rMmTX1, n=9): 1.69 ± 0.25
Factor of GABAA current increase ([4]; 30 μM muscimol + 100 nM rMmTX1): 1.0 ± 0.1 (n = 4)
Factor of GABAA current increase ([4]; 50 μM muscimol + 100 nM rMmTX1): 1.0 ± 0.1 (n = 3)
toxin-induced potentiation at high muscimol ([4]; muscimol concentrations greater than 10 μM): do not observe a toxin-induced potentiation
part of the total [^3H]muscimol binding capacity competed for ([2]; 40 nM [^3H]muscimol): about 40%
Kd ([2]; 40 nM [^3H]muscimol, allosteric modulator fit, read-out: Kd in competition with [^3H]muscimol): 4.9 ± 0.2 nM

B3: rMmTX2: recombinant MmTX2 from a periplasmic expression system (protein)
peptide: B2 peptide with R33H
modifications: ends and bridges not checked
displacing ^125I-rMmTX2 (in words) [1]: equally potent
Ki [1]: 3.7 nM
flaccid paralysis ([16]; injected intravenously into mice): no flaccid paralysis
activity when injected intravenously [16]: inactive
LD50 [17]: 0.010 mg/kg
behavioral signs [17]: reduced activity combined with severe seizures

B4: ^125I-rMmTX2: MmTX2 radioactively labeled by lacto-peroxidase-catalyzed iodination (protein)
peptide: B2 peptide with R33H
modifications: ends and bridges not checked; also: 125I iodination (lactoperoxidase-catalysed), site not given here
second-order kinetic constant of association (k+1) ([18]; 1 to 4 nM ligand, SPMs): 3.7±0.5×10^6 M^−1 s^−1
first-order kinetic constant (k−1) ([18]; dissociation after 1000-fold excess of unlabeled rMmTX2): 0.0014 ± 0.0004 s⁻¹
half time duration of dissociation ([18]; dissociation from SPMs): ~8 min
Kd ([18]; in the presence of 1 mM PTX, read-out: Kd with PTX): 0.76 ± 0.18 nM
Kd ([18]; ratio of both kinetic constants, read-out: true dissociation value (Kd=k−1/k+1)): 0.38 ± 0.05 nM
Kd ([18]; read-out: Kd (saturation binding at equilibrium)): 0.51 ± 0.09 nM

B5: MmTX1 (protein, listed as Micrurus mipartitus)
chain: B2 peptide
modifications: ends and bridges not checked
displacing ^125I-rMmTX2 (in words) [1]: equally potent

B6: Fas 2: animal toxin that targets AChE (protein, UniProt P0C1Z0 1-61, looked up)
Fasciculin-2: TMCYSHTTTSRAILTNCGENSCYRKSRRHPPKMVLGRGCGCPPGDDNLEVKCCTSPDKCNY
modifications: ends and bridges not checked
competition with ^125I-rMmTX2 for binding to SPMs ([1]; ligand 10 μM): does not compete
